Like-named read-outs stand apart in the source and are kept apart here.

The record followed here is doi:10.1101/2019.12.17.880419.

Test in all cases: ITC
In data set [1] the target is T1, UHRF1 SRA (mouse, UniProt Q8VDF2 417-628).
T1 sequence: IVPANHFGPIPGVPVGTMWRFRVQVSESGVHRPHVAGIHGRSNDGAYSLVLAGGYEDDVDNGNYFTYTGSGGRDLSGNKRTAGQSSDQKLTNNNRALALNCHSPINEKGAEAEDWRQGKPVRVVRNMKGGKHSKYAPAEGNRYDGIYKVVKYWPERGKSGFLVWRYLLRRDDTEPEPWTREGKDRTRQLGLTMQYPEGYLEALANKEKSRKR

The target of data set [2] is T1, UHRF1 SRA. The source holds these as a separate data set.
Data set [3] has as its target T1, UHRF1 SRA. This is another data set of the same source.
Data set [4] deals with T1, UHRF1 SRA. The source holds these as a separate data set.

B1: fully-mCHG DNA (ITC) (dsDNA)
DNA 1: TCACGCTGCGTGA
DNA 2: TCACGCTGCGTGA
modifications: 5mC on both strands in CHG context
As for B1, the Kd (commonly the concentration at which binding is half-saturated) in data set [1] turned out to be 1850 ± 60 nM.

B2: hemi-mCG DNA (dsDNA)
DNA 1: GCAATCCGGTAG
DNA 2: CTACCGGATTGC
modifications: 5mC on one strand in CG context
B2 yielded a Kd in data set [2] of 640 ± 120 nM.

B3: mCH DNA (dsDNA)
DNA 1: TCATCAGTGAT
DNA 2: TCACTGATGAC
modifications: 5mC in CH context
In data set [3], B3 registered a dissociation constant Kd of 1160 ± 90 nM.

B4: fully-mCG DNA (dsDNA)
DNA 1: CAGCTCGAGCTG
DNA 2: CAGCTCGAGCTG
modifications: 5mC on both strands in CG context
Regarding B4, the Kd in data set [4] is 4130 ± 90 nM.
